The source of these data is patent US20030232387A1.

The target in the assay is mutant αEβ7 integrin, αE ΔE163-E180, on transfected K562 cells (human) (UniProt P38570). The assay is described as follows: flow cytometry on K562 cells expressing mutant αEβ7. For orientation: Flow cytometry measures light scatter and fluorescence of single cells or particles in a stream.
Chain of mutant αEβ7 integrin, αE ΔE163-E180, on transfected K562 cells (human) (P38570 other isoform, or with tags, fused parts or gaps mutant, chain 1 of 2): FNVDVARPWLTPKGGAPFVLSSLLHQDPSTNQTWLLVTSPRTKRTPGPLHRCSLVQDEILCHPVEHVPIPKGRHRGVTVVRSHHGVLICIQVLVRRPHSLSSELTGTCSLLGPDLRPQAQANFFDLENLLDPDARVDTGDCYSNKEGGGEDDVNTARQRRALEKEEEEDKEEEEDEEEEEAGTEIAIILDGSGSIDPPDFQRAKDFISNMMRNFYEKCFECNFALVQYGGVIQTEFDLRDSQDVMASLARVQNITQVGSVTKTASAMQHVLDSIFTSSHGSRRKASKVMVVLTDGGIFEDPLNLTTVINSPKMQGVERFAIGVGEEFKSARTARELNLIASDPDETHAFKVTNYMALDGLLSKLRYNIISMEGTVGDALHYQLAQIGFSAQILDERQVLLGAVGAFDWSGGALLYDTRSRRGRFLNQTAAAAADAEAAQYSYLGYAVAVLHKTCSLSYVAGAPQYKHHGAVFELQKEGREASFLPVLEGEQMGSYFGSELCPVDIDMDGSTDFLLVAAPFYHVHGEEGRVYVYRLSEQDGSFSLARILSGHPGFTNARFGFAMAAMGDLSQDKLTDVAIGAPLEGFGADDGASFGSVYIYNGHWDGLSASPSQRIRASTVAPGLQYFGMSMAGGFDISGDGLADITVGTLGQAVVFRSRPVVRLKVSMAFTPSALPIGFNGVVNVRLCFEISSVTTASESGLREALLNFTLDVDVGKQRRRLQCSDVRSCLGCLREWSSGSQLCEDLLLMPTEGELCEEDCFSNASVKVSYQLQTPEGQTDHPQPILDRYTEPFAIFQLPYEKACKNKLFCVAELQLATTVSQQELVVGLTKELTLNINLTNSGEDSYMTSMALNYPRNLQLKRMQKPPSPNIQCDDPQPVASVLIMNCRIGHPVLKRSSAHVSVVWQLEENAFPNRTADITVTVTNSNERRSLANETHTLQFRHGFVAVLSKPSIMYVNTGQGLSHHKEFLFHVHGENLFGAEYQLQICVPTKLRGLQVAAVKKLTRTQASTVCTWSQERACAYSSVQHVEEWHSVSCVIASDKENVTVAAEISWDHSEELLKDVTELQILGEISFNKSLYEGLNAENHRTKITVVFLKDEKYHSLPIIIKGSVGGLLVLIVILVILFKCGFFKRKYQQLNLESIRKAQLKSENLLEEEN
Chain of mutant αEβ7 integrin, αE ΔE163-E180, on transfected K562 cells (human) (chain, as listed by the source mutant, chain 2 of 2): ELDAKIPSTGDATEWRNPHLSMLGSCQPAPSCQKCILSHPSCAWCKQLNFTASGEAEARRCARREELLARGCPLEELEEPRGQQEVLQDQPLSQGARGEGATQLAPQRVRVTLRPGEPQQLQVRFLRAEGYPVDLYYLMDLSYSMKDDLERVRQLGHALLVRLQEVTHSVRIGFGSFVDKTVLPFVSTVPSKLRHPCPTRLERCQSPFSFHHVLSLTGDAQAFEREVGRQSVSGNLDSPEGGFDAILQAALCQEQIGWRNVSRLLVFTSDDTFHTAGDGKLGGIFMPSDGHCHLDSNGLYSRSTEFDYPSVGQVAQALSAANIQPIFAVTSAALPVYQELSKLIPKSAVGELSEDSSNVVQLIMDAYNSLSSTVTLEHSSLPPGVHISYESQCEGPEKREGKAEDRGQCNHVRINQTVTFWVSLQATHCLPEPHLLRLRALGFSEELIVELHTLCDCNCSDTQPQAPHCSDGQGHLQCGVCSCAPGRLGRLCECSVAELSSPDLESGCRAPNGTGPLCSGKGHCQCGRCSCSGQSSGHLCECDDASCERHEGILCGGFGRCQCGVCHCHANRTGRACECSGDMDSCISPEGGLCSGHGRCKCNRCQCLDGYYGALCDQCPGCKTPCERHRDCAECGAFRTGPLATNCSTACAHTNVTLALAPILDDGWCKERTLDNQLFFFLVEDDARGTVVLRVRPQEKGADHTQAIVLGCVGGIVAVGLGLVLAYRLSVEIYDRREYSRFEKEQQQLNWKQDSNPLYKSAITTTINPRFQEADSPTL

B1: mAb 5E4 (antibody, V domains shown)
VH: EVQLVESGGGLVQPGGSLRLSCAASGFTFSNFWMSWVRQAPGKGLEWMANIKQDGSEKYYVDSVKGRFTISRDNAKSSLFLQMNSLRVDDTAVYFCAGDYYDSGSFYWGQGTLVTVSS
VL: EIVLTQSPATLSLSPGERATLSCRASQSVRSNLAWYQQKPGQAPRLLIYDASNRAIGIPARFSGSGSGTDFTLTISSLEPEDFVVYYCQQRSNWPPWTFGQGTKVEIK
In the case of B1, the % Control Staining amounted to 25%.
